{"source": "paper PMC10703496", "key": {"[1]": {"target": "ACE2(18–740)-QMP: truncated dimeric human ACE2 (residues 18–740) fused to the N-terminal end of engi (human) (UniProt Q9BYF1)", "assay": "SPR"}, "[2]": {"target": "ACE2(18–740)-QMP: truncated dimeric human ACE2 (residues 18–740) fused to the N-terminal end of engi (human) (UniProt Q9BYF1)", "assay": "SPR; pH 5.5"}}}
{"substance": "soluble His-tagged human neonatal Fc receptor (human FcRn-His) (from UniProt P55899 24-297; P61769 21-119)", "values": [{"measurement": "kon", "setting": "[1]", "result": 254000, "unit": "M⁻¹ s⁻¹"}, {"measurement": "Kd", "setting": "[2]", "result": 0.8, "unit": "nM"}, {"measurement": "koff", "setting": "[2]", "result": 0.0002, "unit": "s⁻¹"}]}
